Results taken from patent publication US20260125455A1 (CLEVELAND CLINIC FOUNDATION, published 2026).
Blank lines part the entries; values can stand above or below the binder they belong to.

Tests used:
[1] = target: human complement protein C5 (human, UniProt P01031 19-673; P01031 678-1676); experiment: ELISA, C5-coated wells
Description: The 20 purified antibodies were tested by ELISA for their abilities to bind human complement proteins C5, C5b6 and C6. The antibodies were divided into two sets for this analysis. MoC601 HuG4K and HuG4K isotype controls were included alongside each set, as was C601HFKC4 HuG4K (aka 3713) expression supernatant from the original transfection as an additional positive control. In addition, three humanized antibodies (C601HFKC4 HuG4K, C601HPKI HuG4K and C601HPKC4 HuG4K) were included within both sets to allow better comparison between the plates. The antibodies all show specificity for C6 with no detectable binding to C5. All humanized antibodies bind to C6 and to C6 as part of the C5b6 complex. The lower plateaus of the C5b6 complex binding curves are explained by less C6 protein being available for binding when wells are coated with C5b6 complex as opposed to C6 alone. […] The EC₅₀ values are included in the figure but slightly different plateau levels observed for the antibodies are influencing the apparent EC₅₀ values. However, it was noted that the EC₅₀ values tended to be lower on the plates for the second set of antibodies. For this reason, a subset of the 20 antibodies was tested in a further ELISA for binding to C6 and C5b6 complex.
(§1) Binding ELISAs used Nunc Maxisorp 384-well plates, wells coated with C6, C5b,6 complex or C5 (Complement Technology Inc, TX) and goat anti-human IgG (Fab specific) peroxidase secondary antibodies (Sigma-Aldrich, A0293) for detection. For the thermal stability assay, IgG supernatants were diluted to their EC₈₀ concentration, incubated at different temperatures for 10 min and C6 binding measured by ELISA with the binding signal plotted against temperature. Kinetics of C6 binding were measured by capturing antibodies from supernatant samples using Protein G biosensors and performing a 20 min association step with 2.5 nM C6 and a 20 min dissociation step using the Octet RED96. Precise kinetic measurements were obtained by surface plasmon resonance (Biacore 8K, Cytiva). The IgG were captured on a protein G sensor chip. Binding of C6 measured using a three-fold concentration series of C6 from 0.03 nM-25 nM and data were fitted using a 1:1 model in two independent experiments.

[2] = target: T1, human complement protein C6 (human, UniProt P13671 22-934); experiment: ELISA, C6-coated wells, large-scale purified antibody
T1 construct: also called human C6; C6 antigen

[3] = target: T1, human complement protein C6; experiment: C6-binding ELISA, A650 nm; sample 'PBS' (28 days at 37 C)
Description: (§2) For the serum stability assessment, samples of the purified candidate antibodies are normally incubated in mouse, human and cynomolgus serum at 37 C for 28 days and then tested in an antigen-binding ELISA. Since the anti-C6 antibodies are expected to bind to both human and cynomolgus C6 but not mouse C6, we anticipated that incubating in human or cynomolgus sera would reduce ELISA binding due to occupation of the antibody binding sites by C6 protein from the sera. Therefore, the chimeric and humanized antibodies were tested with human and mouse sera and with human sera from which the C6 protein has been depleted. […]
as §1, with “Precise kinetic measurements were obtained by surface plasmon resonance (Biacore 8K, Cytiva). The IgG were captured on a protein G sensor chip. Binding of C6 measured using a three-fold concentration series of C6 from 0.03 nM-25 nM and data were fitted using a 1:1 model in two independent experiments.” left out

[4] = target: T1, human complement protein C6; experiment: C6-binding ELISA, A650 nm; sample 'mouse serum' (28 days at 37 C)
Description: For the serum stability assessment, samples of the purified candidate antibodies are normally incubated in mouse, human and cynomolgus serum at 37 C for 28 days and then tested in an antigen-binding ELISA. Since the anti-C6 antibodies are expected to bind to both human and cynomolgus C6 but not mouse C6, we anticipated that incubating in human or cynomolgus sera would reduce ELISA binding due to occupation of the antibody binding sites by C6 protein from the sera. Therefore, the chimeric and humanized antibodies were tested with human and mouse sera and with human sera from which the C6 protein has been depleted. The C6-binding ELISA was then used to compare the binding abilities of the C601 antibodies that had been incubated in the 3 different sera to antibody samples that were incubated in PBS at 37 C or kept at 4 C (non-incubated).
The Uncle instrument (Unchained Labs) was used to monitor unfolding via intrinsic fluorescence and aggregation by static light scattering across a temperature gradient to obtain melting temperatures (Tₘ). […] Isoelectric points were determined by capillary isoelectric focusing using a PA800+ (Beckman Coulter). […]

[5] = target: T1, human complement protein C6; experiment: C6-binding ELISA, A650 nm; sample 'human serun' (human serum, 28 days at 37 C)
Description: as §2
as §1, with “Precise kinetic measurements were obtained by surface plasmon resonance (Biacore 8K, Cytiva). The IgG were captured on a protein G sensor chip. Binding of C6 measured using a three-fold concentration series of C6 from 0.03 nM-25 nM and data were fitted using a 1:1 model in two independent experiments.” left out

[6] = target: T1, human complement protein C6; experiment: ELISA, C6-coated wells, purified antibody
[7] = target: T1, human complement protein C6; experiment: BLI (Octet), antibody on Protein G biosensors, 1:1 fit, experiment 1
[8] = target: T1, human complement protein C6; experiment: C6-binding ELISA, A650 nm; sample 'C6-depleted human serum' (28 days at 37 C)
Description: as §2
as §1, with “Precise kinetic measurements were obtained by surface plasmon resonance (Biacore 8K, Cytiva). The IgG were captured on a protein G sensor chip. Binding of C6 measured using a three-fold concentration series of C6 from 0.03 nM-25 nM and data were fitted using a 1:1 model in two independent experiments.” left out

T1 sequence (P13671 22-934 limits assumed): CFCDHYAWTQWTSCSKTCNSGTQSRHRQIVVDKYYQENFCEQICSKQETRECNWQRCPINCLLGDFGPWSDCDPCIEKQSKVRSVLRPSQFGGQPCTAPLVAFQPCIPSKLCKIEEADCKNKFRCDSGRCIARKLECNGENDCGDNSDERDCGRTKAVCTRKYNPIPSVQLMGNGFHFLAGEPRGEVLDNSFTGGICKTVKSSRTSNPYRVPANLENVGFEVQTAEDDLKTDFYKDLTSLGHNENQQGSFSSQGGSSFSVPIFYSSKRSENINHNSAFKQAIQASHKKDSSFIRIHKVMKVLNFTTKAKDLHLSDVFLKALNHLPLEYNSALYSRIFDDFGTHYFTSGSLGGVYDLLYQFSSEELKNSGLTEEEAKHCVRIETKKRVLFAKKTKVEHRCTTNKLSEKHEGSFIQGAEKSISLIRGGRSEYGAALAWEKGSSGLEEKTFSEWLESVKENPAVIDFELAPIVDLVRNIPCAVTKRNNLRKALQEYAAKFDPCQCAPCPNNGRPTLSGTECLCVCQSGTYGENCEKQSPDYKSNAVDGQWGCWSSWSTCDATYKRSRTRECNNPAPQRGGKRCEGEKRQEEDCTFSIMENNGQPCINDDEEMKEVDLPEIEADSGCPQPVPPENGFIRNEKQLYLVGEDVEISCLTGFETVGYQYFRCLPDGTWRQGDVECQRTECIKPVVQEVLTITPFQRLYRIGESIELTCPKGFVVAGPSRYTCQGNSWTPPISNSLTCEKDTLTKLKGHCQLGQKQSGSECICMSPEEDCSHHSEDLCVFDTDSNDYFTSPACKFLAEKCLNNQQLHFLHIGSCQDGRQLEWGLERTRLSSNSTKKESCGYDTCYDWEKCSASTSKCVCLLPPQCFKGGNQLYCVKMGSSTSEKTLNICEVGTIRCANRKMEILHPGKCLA
human complement protein C5, sequence (P01031 19-673 limits assumed, chain 1 of 2): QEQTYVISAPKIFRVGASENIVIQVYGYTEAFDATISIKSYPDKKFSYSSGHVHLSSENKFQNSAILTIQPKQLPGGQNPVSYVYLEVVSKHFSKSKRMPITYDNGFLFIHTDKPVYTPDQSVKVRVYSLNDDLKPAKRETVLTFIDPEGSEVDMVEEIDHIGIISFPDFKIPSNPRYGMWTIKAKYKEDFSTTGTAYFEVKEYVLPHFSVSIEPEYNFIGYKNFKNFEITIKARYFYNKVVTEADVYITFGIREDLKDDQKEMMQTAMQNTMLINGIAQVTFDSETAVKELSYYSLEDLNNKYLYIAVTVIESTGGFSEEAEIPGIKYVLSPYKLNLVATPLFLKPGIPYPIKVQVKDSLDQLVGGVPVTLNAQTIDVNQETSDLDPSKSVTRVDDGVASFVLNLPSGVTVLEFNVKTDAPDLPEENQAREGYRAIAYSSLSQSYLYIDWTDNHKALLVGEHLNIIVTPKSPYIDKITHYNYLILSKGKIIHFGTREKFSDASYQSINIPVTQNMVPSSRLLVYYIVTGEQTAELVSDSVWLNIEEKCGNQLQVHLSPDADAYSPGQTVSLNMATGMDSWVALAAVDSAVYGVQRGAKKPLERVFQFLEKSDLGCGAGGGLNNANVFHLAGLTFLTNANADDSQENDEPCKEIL
human complement protein C5, sequence (P01031 678-1676 limits assumed, chain 2 of 2): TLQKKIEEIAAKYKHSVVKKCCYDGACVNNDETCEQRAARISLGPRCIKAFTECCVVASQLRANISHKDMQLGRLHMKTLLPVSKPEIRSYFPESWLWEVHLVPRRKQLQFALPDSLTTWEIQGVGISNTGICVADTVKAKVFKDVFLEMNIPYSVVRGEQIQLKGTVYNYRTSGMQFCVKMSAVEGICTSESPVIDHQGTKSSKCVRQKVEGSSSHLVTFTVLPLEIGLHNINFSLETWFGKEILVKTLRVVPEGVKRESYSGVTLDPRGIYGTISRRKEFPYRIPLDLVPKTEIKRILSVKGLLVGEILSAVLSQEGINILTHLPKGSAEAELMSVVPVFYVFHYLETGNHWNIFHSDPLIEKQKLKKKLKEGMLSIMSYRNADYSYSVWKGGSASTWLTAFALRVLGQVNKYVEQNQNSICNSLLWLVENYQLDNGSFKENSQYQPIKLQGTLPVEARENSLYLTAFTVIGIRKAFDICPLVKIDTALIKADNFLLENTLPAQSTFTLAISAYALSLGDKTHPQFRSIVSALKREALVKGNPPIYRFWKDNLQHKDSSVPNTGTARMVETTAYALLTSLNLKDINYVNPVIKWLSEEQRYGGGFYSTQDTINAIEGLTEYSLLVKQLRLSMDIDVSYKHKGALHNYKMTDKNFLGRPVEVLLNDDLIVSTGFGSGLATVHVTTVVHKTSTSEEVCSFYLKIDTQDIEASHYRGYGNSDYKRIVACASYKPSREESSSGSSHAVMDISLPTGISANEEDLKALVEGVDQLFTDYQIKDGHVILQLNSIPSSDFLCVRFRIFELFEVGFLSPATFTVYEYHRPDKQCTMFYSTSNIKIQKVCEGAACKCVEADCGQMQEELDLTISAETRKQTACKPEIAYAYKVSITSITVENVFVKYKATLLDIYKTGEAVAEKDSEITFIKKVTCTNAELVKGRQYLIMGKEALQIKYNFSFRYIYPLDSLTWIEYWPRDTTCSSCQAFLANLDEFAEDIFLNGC

binding result [1]: no binding
EC50 [2]: 0.19 nM
EC50 [3]: 0.19 nM
EC50 [4]: 0.15 nM
EC50 [5]: 0.19 nM
B1: C601HFKC4 HuG4K (antibody, human IgG4 S228P, kappa)
heavy: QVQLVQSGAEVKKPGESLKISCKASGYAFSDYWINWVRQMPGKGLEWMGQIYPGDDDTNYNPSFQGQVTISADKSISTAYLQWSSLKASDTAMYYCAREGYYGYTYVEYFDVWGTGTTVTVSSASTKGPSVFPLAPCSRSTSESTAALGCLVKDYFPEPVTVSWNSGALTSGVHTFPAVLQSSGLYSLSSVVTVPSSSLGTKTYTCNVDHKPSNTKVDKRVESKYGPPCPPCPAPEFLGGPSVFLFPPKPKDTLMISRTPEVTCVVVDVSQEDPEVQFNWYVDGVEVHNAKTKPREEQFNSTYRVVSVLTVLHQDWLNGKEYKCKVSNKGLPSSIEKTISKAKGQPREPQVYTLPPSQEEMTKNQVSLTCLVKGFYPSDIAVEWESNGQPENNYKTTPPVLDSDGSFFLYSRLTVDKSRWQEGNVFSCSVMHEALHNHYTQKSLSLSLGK
light: QIVLTQSPATLSLSPGERATLSCRASSSVSYLHWYQQKPGQSPRLWIYDTSKRATGIPARFSGSGSGTDYTLTISSLEPEDFAVYYCQQWTSNPLTFGQGTKLEIKRTVAAPSVFIFPPSDEQLKSGTASVVCLLNNFYPREAKVQWKVDNALQSGNSQESVTEQDSKDSTYSLSSTLTLSKADYEKHKVYACEVTHQGLSSPVTKSFNRGEC
notes: also called 3713; clone 3713

EC50 [6]: 0.2 nM
Kd [7]: 0.36 nM
koff [7]: 0.00025 s⁻¹
kon [7]: 690000 M⁻¹ s⁻¹
EC50 [8]: 0.15 nM
B2: MoC601 HuG4K (chimeric C601 antibody) (antibody, human IgG4 S228P, kappa, V domains shown)
VH: QVQLQQSGAELVKPGASVKISCKASGYAFSDYWMNWVKQRPGKGLEWIGQIYPGDDDTNYNGKFKGKATLTADKSSSTAYMQLSSLTSEDSAVYFCAREGYYGYTYVEYFDVWGTGTTVTVSS
VL: QIVLTQSPAIMSVSPGEKVTLTCSASSSVSYMHWYQQKSGTSPKRWIYDTSKLASGVPARFSGSGSGTSYSLTISSMEAEDAATYYCQQWTSNPLTFGAGTKLELRR
notes: also called chimeric antibody; chimeric 1C9
